Test results from the supplement of paper PMC12042874.
± gives the uncertainty stated by the source.

Assay: amyloid nucleation score (Sup35N fusion, yeast selection) (log enrichment); library NNK1; higher = more nucleation; inactive = no reads after selection
How it was run: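 On medium lacking adenine and uracil, psi-negative yeast expressing peptides of 20 random codons fused to Sup35N were grown 7 days at 30°C after a 24-hour induction with 100 μM copper sulfate. Illumina sequencing of input and output plasmid inserts gave the reads, and sequences under 100 input reads were excluded. The nucleation score is the DiMSum log enrichment of output over input reads, centred on the mode score of non-aggregating sequences.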
In the case of AWDFWTWVSSGVWWYDASVR, the amyloid nucleation score is reported as -0.398 ± 0.91.
AWIPFVNTKTEWRVMDVNFD gave an amyloid nucleation score of 0.399 ± 0.62.
AWKGWFLMGYCGDRVMWDWR showed an amyloid nucleation score of -0.131 ± 0.73.
In the case of AWLSGVNVVSKSQGCFLWYG, the amyloid nucleation score is reported as 0.551 ± 0.56.
AWRSFIGYRMRVWIGYRGCY gave an amyloid nucleation score of 0.186 ± 0.95.
With AWSRLSVNPVVEENVMAIAL the amyloid nucleation score was 0.909 ± 0.69.
AWVRLYWAGR gave an amyloid nucleation score of 0.216 ± 0.68.
AWWRCCGTLRTVRSAAKGLM gave an amyloid nucleation score of -0.292 ± 1.1.
AYAEIYERSEPGKDRHYLFM showed an amyloid nucleation score of -0.313 ± 0.74.
With AYAKLYKLSVLEPGRRVRMQ the amyloid nucleation score was 1.21 ± 0.57.
Substance AYCRTNTNLRVLRIWNK has an amyloid nucleation score of -0.611 ± 0.53.
In the case of AYLYQSSYLVRC, the amyloid nucleation score is reported as 0.368 ± 0.36.
AYPWRITFDAWISYV showed an amyloid nucleation score of 0.294 ± 0.76.
For AYSVRICLDFGKNG, the amyloid nucleation score was “inactive”.
With AYTEMNLRIVERYSMNTIRP the amyloid nucleation score was 2.14 ± 0.26.
In the case of CCFSSMNFIS, the amyloid nucleation score is reported as 4.04 ± 0.082.
CCGCWYIITKPYSNKVRKCA showed an amyloid nucleation score of 0.265 ± 0.73.
With CCGMSGLSIGDGKNFMSGWV the amyloid nucleation score was 1.82 ± 0.45.
With CCPRYMSIDSIDDRFYDKSF the amyloid nucleation score was “inactive”.
Substance CCPWEEHGICNEWRHRGSGT has an amyloid nucleation score of -0.199 ± 0.46.
For CCQRYCCTSGLANNWNRVYH, the amyloid nucleation score was 0.812 ± 0.75.
CCRARDLIYLNITHAFFSIL gave an amyloid nucleation score of -0.289 ± 0.47.
For CCRVISIWG, the amyloid nucleation score was 0.115 ± 0.54.
CCSTSADIHSARNDVWSYSE showed an amyloid nucleation score of -0.271 ± 0.88.
CCTNM gave an amyloid nucleation score of 0.332 ± 0.22.
CCYYTSVILVFDGRFDEMPY showed an amyloid nucleation score of 4.23 ± 0.07.
With CDCTSRGK the amyloid nucleation score was -0.407 ± 1.5.
CDFRIFRLSVPGTYYVCDWL showed an amyloid nucleation score of -0.018 ± 0.6.
CDGRW gave an amyloid nucleation score of 0.186 ± 0.3.
Work on CDNGPLLIVGVRHRTRACVT yielded an amyloid nucleation score of 0.861 ± 0.38.
For CDSKLHISSSC, the amyloid nucleation score was 0.313 ± 0.84.
CDSTVMRGLYCGRVVYSLFV showed an amyloid nucleation score of 0.721 ± 0.47.
Work on CEAMVLKGCAEAVQYRATDS yielded an amyloid nucleation score of -0.23 ± 1.1.
Work on CEEKCSHNVGTY yielded an amyloid nucleation score of 0.458 ± 0.55.
For CEFLIFTFRVSGEVLLQSRA, the amyloid nucleation score was 0.265 ± 0.92.
CEGMVIMVGRVLRTSYLYNL showed an amyloid nucleation score of 0.001 ± 0.61.
For CETVG, the amyloid nucleation score was “inactive”.
Substance CEWVWRGSVCSIWLLVLLPV has an amyloid nucleation score of 0.09 ± 0.41.
CFEDRYSLRCGM showed an amyloid nucleation score of -0.397 ± 0.34.
CFEFDPFMNMVKSCWCCQVA gave an amyloid nucleation score of -0.281 ± 0.93.
Work on CFEYFY yielded an amyloid nucleation score of -0.664 ± 0.32.
CFFYDCGWTCPLKNIGSYTF gave an amyloid nucleation score of 0.07 ± 0.51.
With CFLMNLVAYFVFLRTLS the amyloid nucleation score was 1.49 ± 0.56.
With CFMVHNTVVRVGKE the amyloid nucleation score was 0.177 ± 0.7.
Substance CFPPSNCYLLYKLCVLLRIN has an amyloid nucleation score of -0.134 ± 0.45.
With CFQLRVGMTDDALWRLMC the amyloid nucleation score was -0.452 ± 1.9.
CFQVYICVVDSDYRNFLWDA showed an amyloid nucleation score of 3.73 ± 0.077.
CFSGPPMTESVYNPTSGNEH showed an amyloid nucleation score of 0.152 ± 0.72.
CFSHVWVDLIDFYVRFVLFR gave an amyloid nucleation score of -0.209 ± 0.69.
Work on CFSQVCDKFMMEMMFSCFKV yielded an amyloid nucleation score of 0.451 ± 0.24.
Work on CFTICFVGYCSRVKGWLMQR yielded an amyloid nucleation score of -0.617 ± 0.71.
CFTYSARH showed an amyloid nucleation score of 3.67 ± 0.11.
With CGAMGVVL the amyloid nucleation score was 0.112 ± 0.26.
Work on CGCCARWNYIIMMGWGGCVL yielded an amyloid nucleation score of 0.096 ± 0.69.
CGEIENRMVTEAVTALLLYD showed an amyloid nucleation score of 0.034 ± 0.41.
CGRKGEHIFYTTDNEYLNYV gave an amyloid nucleation score of 0.211 ± 0.36.
For CGVNLKNLLTMLPDIGLHAV, the amyloid nucleation score was 0.227 ± 0.25.
CGWRSLVVFSFDLDAS showed an amyloid nucleation score of 0.876 ± 0.47.
Substance CHIGSRPLASMKAFPHCDVA has an amyloid nucleation score of 1 ± 0.57.
For CHNHRMYH, the amyloid nucleation score was 0.072 ± 0.9.
CHNVAVPRVIVIGFDSGILY showed an amyloid nucleation score of 0.341 ± 0.7.
In the case of CHQAEPGIGMRSCTLVGEGV, the amyloid nucleation score is reported as 1.36 ± 0.61.
Work on CHQFV yielded an amyloid nucleation score of 0.833 ± 0.5.
With CHVQMSFNGLRYNFHTIFFI the amyloid nucleation score was 1.2 ± 0.74.
CICLDTSGSVLYSLCTDCGL gave an amyloid nucleation score of 0.871 ± 0.69.
Substance CIGRCMWI has an amyloid nucleation score of 1.81 ± 0.61.
Work on CIIVVSTRAADPDLCSYIML yielded an amyloid nucleation score of 0.234 ± 0.75.
Substance CILLVFEDMWVSIV has an amyloid nucleation score of -0.53 ± 0.36.
With CILRRMDADFIFIVCVDCFG the amyloid nucleation score was -0.055 ± 0.4.
Substance CIRGGSIWLMGHNVREVC has an amyloid nucleation score of 0.401 ± 0.49.
With CIRVSIVID the amyloid nucleation score was 0.215 ± 0.38.
